Test results reported in patent publication US20120028912A1 (NEW YORK UNIVERSITY AND THE RESEARCH FOUNDATION OF THE …, published 2012).
Numbering of substitutions follows the chain as printed. Names may count otherwise.

Experiments:
[1] = target: T1, N-terminal biotinylated and lysine-acetylated Tat peptide (Tat AcK50) (HIV-1); assay: pull-down with the biotinylated Tat-K50ac peptide on streptavidin agarose, anti-GST Western blot
T1 construct: also called biotinylated and wild type Tat peptide; Tat peptide containing AcK50

[2] = target: T1, N-terminal biotinylated and …; assay: pull-down with the N-terminal biotinylated, lysine-acetylated Tat peptide on streptavidin agarose, anti-GST western blot
[3] = target: T2, Tat AcK50 peptide SYGR-AcK-KRRQRC (SEQ ID NO:50) (HIV-1); assay: NMR 2D 1H-15N HSQC
T2 construct: Synthetic peptide

[4] = target: p300/CBP-associated factor (P/CAF), HA-tagged (human, UniProt Q92831 1-832); assay: co-immunoprecipitation from cells with anti-FLAG (FLAG-Tat), western blot with anti-HA (HA-P/CAF)

B1: TIF16 (624-812) (other)
chain: SATICRVCQKPGDLVMCNQCEFCFHLDCHLPALQDVPGEEWSCSLCHVLPDLKEEDGSLSLDGADSTGVVAKLSPANQRKCERVLLALFCHEPCRPLHQLATDSTFSLDQPGGTLDLTLIRARLQEKLSPPYSSPQEFAQDVGRMFKQFNKLTEDKADVQSIIGLQRFFETRMNEAFGDTKFSAVLVEP
notes: also called GST-fusion TIF1b bromodomain-containing construct, residues 624-812 (lane 6); the sheet prints 'TIF16'; not shown: GST tag and linker of the pGEX4T-3 vector
B1: no binding [1].

B2: GST-fusion bromodomain from TIF1 (other)
chain: KLSPANQRKCERVLLALFCHEPCRPLHQLATDSTFSLDQPGGTLDLTLIRARLQEKLSPPYSSPQEFAQDVGRMFKQFNKLTEDKADVQSIIGLQRFFETRMNEAFGDTKFSAVLVEP
notes: domain: bromodomain; also called bromodomain of TIF1; TIF1b
B2: no binding [2].

B3: bromodomain of P/CAF (residues 719-832 of SEQ ID NO:2) (other)
chain: SKEPRDPDQLYSTLKSILQQVKSHQSAWPFMEPVKRTEAPGYYEVIRFPMDLKTMSERLKNRYYVSKKLFMADLQRVFTNCKEYNAAESEYYKCANILEKFFFSKIKEAGLIDK
notes: also called P/CAF bromodomain; PCAF bromodomain
For B3, the Kd [3] was ~20 µM.

B4: TIF16 (702-812) (other)
chain: RKCERVLLALFCHEPCRPLHQLATDSTFSLDQPGGTLDLTLIRARLQEKLSPPYSSPQEFAQDVGRMFKQFNKLTEDKADVQSIIGLQRFFETRMNEAFGDTKFSAVLVEP
notes: also called GST-fusion TIF1b bromodomain construct, residues 702-812 (lane 5); not shown: GST tag and linker of the pGEX4T-3 vector
B4: no binding [1].

B5: CBP (1082-1317) (other)
chain: KKIFKPEELRQALMPTLEALYRQDPESLPFRQPVDPQLLGIPDYFDIVKNPMDLSTIKRKLDTGQYQEPWQYVDDVWLMFNNAWLYNRKTSRVYKFCSKLAEVFEQEIDPVMQSLGYCCGRKYEFSPQTLCCYGKQLCTIPRDAAYYSYQNRYHFCEKCFTEIQGENVTLGDDPSQPQTTISKDQFEKKKNDTLDPEPFVDCKECGRKMHQICVLHYDIIWPSGFVCDNCLKKTGR
notes: also called GST-fusion CBP bromodomain-containing construct, residues 1082-1317 (lane 4); not shown: GST tag and linker of the pGEX4T-3 vector
B5: no binding [1].

B6: HIV-1 Tat protein, wild type (other)
chain: MEPVDPRLEPWKHPGSQPKTASNNCYCKRCCLHCQVCFTKKGLGISYGRKKRRQRRRAPQDSKTHQVSLSKQPASQPRGDPTGPKESKKKVERETETDPED
notes: also called Tat-KK; wild type Tat
B6: binds [4].

B7: HIV-1 Tat double mutant K50R/K51R (other)
chain: B6 chain with K50R, K51R
notes: also called Tat-RR; Tat K50R/K51R mutant protein
B7: no binding [4].
